Experimental findings from publication PMC6555819, “Comprehensive study of nuclear receptor DNA binding provides a revised framework for understanding receptor specificity” are described below.

Substitutions are numbered along the chain they refer to.

B1: NRC3_wobSeed92_DR3_A20T_o1 (dsDNA)
DNA 1: GCAGAATGAGGTTATTAAGTTCAGGGAATTGCGGTCGCGATTGACAGCGTAGAATGAAGG
DNA 2: CCTTCATTCTACGCTGTCAATCGCGACCGCAATTCCCTGAACTTAATAACCTCATTCTGC
B2: NRC3_wobSeed92_DR3_A20G_o1 (dsDNA)
DNA 1: B1 DNA 1 with T20G
DNA 2: B1 DNA 2 with A41C
B3: NRC3_wobSeed94_DR3_G23A_o1 (dsDNA)
DNA 1: GCCTACCAAGGTGAACAAGGTCATTGATTACTATTCGCGATTGACAGCGTAGAATGAAGG
DNA 2: CCTTCATTCTACGCTGTCAATCGCGAATAGTAATCAATGACCTTGTTCACCTTGGTAGGC
B4: NRC3_wobSeed94_DR3_A17G_o1 (dsDNA)
DNA 1: B3 DNA 1 with A17G, A23G
DNA 2: B3 DNA 2 with T38C, T44C
B5: NRC3_wobSeed94_DR3_G13T_o1 (dsDNA)
DNA 1: B3 DNA 1 with G13T, A23G
DNA 2: B3 DNA 2 with T38C, C48A
B6: NRC3_wobSeed74_DR3_T9G_o1 (dsDNA)
DNA 1: GCTCTAGTGGGTCACGGAGGTCACACACGACGGGTAGCGATTGACAGCGTAGAATGAAGG
DNA 2: CCTTCATTCTACGCTGTCAATCGCTACCCGTCGTGTGTGACCTCCGTGACCCACTAGAGC
B7: NRC3_wobSeed74_DR3_G20T_o1 (dsDNA)
DNA 1: B6 DNA 1 with G9T, G20T
DNA 2: B6 DNA 2 with C41A, C52A
B8: NRC3_wobSeed74_DR3_G16C_o1 (dsDNA)
DNA 1: B6 DNA 1 with G9T, G16C
DNA 2: B6 DNA 2 with C45G, C52A
B9: NRC3_wobSeed69_DR2_T5A_o1 (dsDNA)
DNA 1: GCAGACAAAGTTCACTAGGTAACGTAAGATTCAGCTGCGATTGACAGCGTAGAATGAAGG
DNA 2: CCTTCATTCTACGCTGTCAATCGCAGCTGAATCTTACGTTACCTAGTGAACTTTGTCTGC
B10: NRC3_wobSeed95_DR3_G12T_o1 (dsDNA)
DNA 1: GCAGAACGAGGTCAATGAGTTGATAGCACGGGTGGCGCGATTGACAGCGTAGAATGAAGG
DNA 2: CCTTCATTCTACGCTGTCAATCGCGCCACCCGTGCTATCAACTCATTGACCTCGTTCTGC
B11: NRC3_wobSeed95_DR3_G22T_o1 (dsDNA)
DNA 1: B10 DNA 1 with T12G, G22T
DNA 2: B10 DNA 2 with C39A, A49C
B12: NRC3_wobSeed95_DR3_A9G_o1 (dsDNA)
DNA 1: B10 DNA 1 with A9G, T12G
DNA 2: B10 DNA 2 with A49C, T52C
B13: NRC3_wobSeed28_DR1_T26G_o1 (dsDNA)
DNA 1: GCCCTACTGGGCCAAAGGTCATTGAGTCCAATGCTCGCGATTGACAGCGTAGAATGAAGG
DNA 2: CCTTCATTCTACGCTGTCAATCGCGAGCATTGGACTCAATGACCTTTGGCCCAGTAGGGC
B14: NRC3_wobSeed41_DR1_C24G_o1 (dsDNA)
DNA 1: GCATATGTAGGTTAAGGGTCATTGAGGTTGGTTCGCGCGATTGACAGCGTAGAATGAAGG
DNA 2: CCTTCATTCTACGCTGTCAATCGCGCGAACCAACCTCAATGACCCTTAACCTACATATGC
B15: NRC3_wobSeed2_DR0_A22T_o1 (dsDNA)
DNA 1: GCCCTAGTTGGTCAAGGTCACTCACGCTATAGGTACGCGATTGACAGCGTAGAATGAAGG
DNA 2: CCTTCATTCTACGCTGTCAATCGCGTACCTATAGCGTGAGTGACCTTGACCAACTAGGGC
B16: NRC3_wobSeed82_DR3_G22C_o1 (dsDNA)
DNA 1: GCATCGAAAGGTCGACGAGGTCAGTATACACCGTTTGCGATTGACAGCGTAGAATGAAGG
DNA 2: CCTTCATTCTACGCTGTCAATCGCAAACGGTGTATACTGACCTCGTCGACCTTTCGATGC
B17: NRC3_wobSeed72_DR2_A6C_o1 (dsDNA)
DNA 1: GCTCGCGTAGGTTACGGGGGCATTCAGGGATGAAGAGCGATTGACAGCGTAGAATGAAGG
DNA 2: CCTTCATTCTACGCTGTCAATCGCTCTTCATCCCTGAATGCCCCCGTAACCTACGCGAGC
B18: NRC3_wobSeed61_DR2_T24G_o1 (dsDNA)
DNA 1: GCCGTCCAAGGTCAGCAGGTCAGGGAAAGCGACGTGGCGATTGACAGCGTAGAATGAAGG
DNA 2: CCTTCATTCTACGCTGTCAATCGCCACGTCGCTTTCCCTGACCTGCTGACCTTGGACGGC
B19: NRC3_wobSeed61_DR2_o1 (dsDNA)
DNA 1: B18 DNA 1 with G24T
DNA 2: B18 DNA 2 with C37A
B20: NRC3_wobSeed61_DR2_G25A_o1 (dsDNA)
DNA 1: B18 DNA 1 with G24T, G25A
DNA 2: B18 DNA 2 with C36T, C37A
B21: NRC3_wobSeed66_DR2_o1 (dsDNA)
DNA 1: GCAATACAGGGTCACTAGGCCAGAGTAGGTACGAATGCGATTGACAGCGTAGAATGAAGG
DNA 2: CCTTCATTCTACGCTGTCAATCGCATTCGTACCTACTCTGGCCTAGTGACCCTGTATTGC
B22: NRC3_wobSeed66_DR2_G9A_o1 (dsDNA)
DNA 1: B21 DNA 1 with G9A
DNA 2: B21 DNA 2 with C52T
B23: NRC3_wobSeed65_DR2_C25G_o1 (dsDNA)
DNA 1: GCATATGTAGGTTATCGGGTCATTGAGTTTGCGCATGCGATTGACAGCGTAGAATGAAGG
DNA 2: CCTTCATTCTACGCTGTCAATCGCATGCGCAAACTCAATGACCCGATAACCTACATATGC
B24: NRC3_wobSeed65_DR2_C16G_o1 (dsDNA)
DNA 1: B23 DNA 1 with C16G, G25C
DNA 2: B23 DNA 2 with C36G, G45C
B25: NRC3_wobSeed50_DR2_G7A_o1 (dsDNA)
DNA 1: GCCCTAATTGGTCAGGAGGTCACACACCGGATATGAGCGATTGACAGCGTAGAATGAAGG
DNA 2: CCTTCATTCTACGCTGTCAATCGCTCATATCCGGTGTGTGACCTCCTGACCAATTAGGGC
B26: NRC3_wobSeed22_DR0_T25C_o1 (dsDNA)
DNA 1: GCTTACCAAGGTGAAGGTCGTTGACCCCTCTGTAGAGCGATTGACAGCGTAGAATGAAGG
DNA 2: CCTTCATTCTACGCTGTCAATCGCTCTACAGAGGGGTCAACGACCTTCACCTTGGTAAGC
B27: NRC3_wobSeed76_DR3_C12T_o1 (dsDNA)
DNA 1: GCCCTACTGGGTCAAAAAGGTCATTGATGCCGATAAGCGATTGACAGCGTAGAATGAAGG
DNA 2: CCTTCATTCTACGCTGTCAATCGCTTATCGGCATCAATGACCTTTTTGACCCAGTAGGGC
B28: NRC3_wobSeed124_DR5_C17T_o1 (dsDNA)
DNA 1: GCCCTACTGGGCCATTTAGAGGTCATTGATCATATGGCGATTGACAGCGTAGAATGAAGG
DNA 2: CCTTCATTCTACGCTGTCAATCGCCATATGATCAATGACCTCTAAATGGCCCAGTAGGGC
B29: NRC3_wobSeed124_DR5_A29G_o1 (dsDNA)
DNA 1: B28 DNA 1 with T17C, A29G
DNA 2: B28 DNA 2 with T32C, A44G
B30: NRC3_wobSeed81_DR3_A13C_o1 (dsDNA)
DNA 1: GCATCTCTAGGTCACCAAGTTCAGTGAATGCCGAACGCGATTGACAGCGTAGAATGAAGG
DNA 2: CCTTCATTCTACGCTGTCAATCGCGTTCGGCATTCACTGAACTTGGTGACCTAGAGATGC
B31: NRC3_wobSeed119_DR4_C7A_o1 (dsDNA)
DNA 1: GCGGAAAGAGGGCATTCGAGTTGATAGCATGGCGATGCGATTGACAGCGTAGAATGAAGG
DNA 2: CCTTCATTCTACGCTGTCAATCGCATCGCCATGCTATCAACTCGAATGCCCTCTTTCCGC
B32: NRC3_wobSeed101_DR4_o1 (dsDNA)
DNA 1: GCCCTTACGGGTCACTCCAGGTTATAGCATCGGAGTGCGATTGACAGCGTAGAATGAAGG
DNA 2: CCTTCATTCTACGCTGTCAATCGCACTCCGATGCTATAACCTGGAGTGACCCGTAAGGGC
B33: NRC3_wobSeed113_DR4_A14C_o1 (dsDNA)
DNA 1: GCATATGTAGGTTCGCTGGGGTCATTCAGACTAGGCGCGATTGACAGCGTAGAATGAAGG
DNA 2: CCTTCATTCTACGCTGTCAATCGCGCCTAGTCTGAATGACCCCAGCGAACCTACATATGC

Sequence of VDR:RXRa (P11473 whole entry, chain 1 of 2): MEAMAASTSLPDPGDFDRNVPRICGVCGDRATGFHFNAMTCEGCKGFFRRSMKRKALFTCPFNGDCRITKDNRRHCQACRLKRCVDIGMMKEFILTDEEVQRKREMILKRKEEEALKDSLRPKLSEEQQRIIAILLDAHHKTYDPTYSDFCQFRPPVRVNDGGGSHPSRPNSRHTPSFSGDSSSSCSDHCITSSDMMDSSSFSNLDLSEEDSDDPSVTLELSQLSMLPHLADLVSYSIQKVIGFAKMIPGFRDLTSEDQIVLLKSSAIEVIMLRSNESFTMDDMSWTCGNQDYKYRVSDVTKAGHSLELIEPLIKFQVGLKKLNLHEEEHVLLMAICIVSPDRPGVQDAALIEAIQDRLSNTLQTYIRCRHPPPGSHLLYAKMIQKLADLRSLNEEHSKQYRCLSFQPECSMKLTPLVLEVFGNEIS
Sequence of VDR:RXRa (P19793 whole entry, chain 2 of 2): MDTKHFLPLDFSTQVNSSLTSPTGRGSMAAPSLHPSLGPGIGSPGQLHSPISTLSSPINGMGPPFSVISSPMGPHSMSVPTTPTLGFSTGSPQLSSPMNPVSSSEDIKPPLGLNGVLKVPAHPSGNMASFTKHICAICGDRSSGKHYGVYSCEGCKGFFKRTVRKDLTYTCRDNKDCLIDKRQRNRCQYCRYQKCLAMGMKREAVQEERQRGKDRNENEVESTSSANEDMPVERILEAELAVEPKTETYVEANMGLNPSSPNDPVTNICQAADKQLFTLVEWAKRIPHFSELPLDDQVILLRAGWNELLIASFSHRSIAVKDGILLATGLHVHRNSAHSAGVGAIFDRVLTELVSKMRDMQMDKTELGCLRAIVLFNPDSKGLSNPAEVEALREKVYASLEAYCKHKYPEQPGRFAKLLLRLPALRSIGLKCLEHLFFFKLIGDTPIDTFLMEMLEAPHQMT

This data set concerns the target VDR:RXRa (Homo sapiens, UniProt P11473;P19793 full;full). Nature of the data set: no ligand; PBM; 270 nM : 90 nM RXRa; PBS pH 7.4, 2% milk, 0.02% Triton X-100, 1 mM DTT, BSA, 0.4 mg/ml salmon testes DNA. To be noted: tags: His kept;His cleaved; copies: 1;1; label: surface-attached array probe. The essentials: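 Regression normalization was applied to scanned fluorescence from custom Agilent 4×180K protein-binding microarrays. Before scanning, arrays were incubated 1 h with ligand-free nuclear receptor dimers, and binding was detected with antibodies against each partner (one per run). Binding z-scores use the random background probes as reference.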
Regarding B1, the binding signal is 6.9 PBM z-score against 500 random probes.
For B2 the value was 6.76 PBM z-score against 500 random probes; for B3, 7.03 PBM z-score against 500 random probes.
For B4 the value was 6.62 PBM z-score against 500 random probes; for B5, 6.93 PBM z-score against 500 random probes; for B6, 7.63 PBM z-score against 500 random probes.
For B7 the value was 6.57 PBM z-score against 500 random probes; for B8, 6.63 PBM z-score against 500 random probes; for B9, 3.85 PBM z-score against 500 random probes.
In the case of B10, the binding signal is 7.63 PBM z-score against 500 random probes.
As for B11, the binding signal is 6.73 PBM z-score against 500 random probes.
For B12, the binding signal is 6.59 PBM z-score against 500 random probes.
For B13 the value was 7.34 PBM z-score against 500 random probes; for B14, 6.5 PBM z-score against 500 random probes; for B15, 3.83 PBM z-score against 500 random probes.
For B16 the value was 7.66 PBM z-score against 500 random probes; for B17, 3.92 PBM z-score against 500 random probes; for B18, 4.03 PBM z-score against 500 random probes.
In the case of B19, the binding signal was 3.97 PBM z-score against 500 random probes.
As to B20, the binding signal was 4 PBM z-score against 500 random probes.
As for B21, the figure is 4.15 PBM z-score against 500 random probes; as for B22, 4.1 PBM z-score against 500 random probes.
As for B23, the figure is 6.9 PBM z-score against 500 random probes.
In the case of B24, the binding signal was 6.73 PBM z-score against 500 random probes.
For B25 the value was 3.96 PBM z-score against 500 random probes; for B26, 4.04 PBM z-score against 500 random probes; for B27, 6.93 PBM z-score against 500 random probes.
As for B28, the figure is 3.9 PBM z-score against 500 random probes.
As to B29, the binding signal is 3.87 PBM z-score against 500 random probes.
With B30, the binding signal is 7.59 PBM z-score against 500 random probes.
As for B31, the figure is 4.08 PBM z-score against 500 random probes; as for B32, 4.06 PBM z-score against 500 random probes.
Take B33: the binding signal is 7.03 PBM z-score against 500 random probes.
